Source: paper PMC11585080 (ACS nano, 2019)

Experiments:
Type in all cases: physicochemical
[1] = ThT fluorescence assay of Aβ1–40 aggregation
[2] = Phase diagram of Aβ1–40 aggregation in water/alcohol mixtures
[3] = Analytical ultracentrifugation
[4] = 6% HFIP, with sonication, 37 °C
[5] = without TFE, with sonication, 10 μM Aβ1–40, 10 mM sodium phosphate buffer pH 7.5, 100 mM NaCl, 5 μM ThT, 37 °C, three independent measurements
[6] = representatively selected peak, 2% HFIP, 25 °C

Substance: amyloid-β (1–40) [Aβ1–40]
- lag time before sigmoidal increase in ThT fluorescence ([1]; 2% HFIP, quiescent, 10 μM, pH 7.5, 100 mM NaCl, 37 °C): ~ 6 h
- conversion rate constant (protofibrils to amyloid fibrils) [1, 4]: 2.21 ± 0.85 h⁻¹
- time at which the ThT reaction was completed [1, 4]: ~ 2 h
- change in intensity of ThT fluorescence ([1]; 6% HFIP, without sonication, after ~35 h, 37 °C): did not change
- ThT fluorescence during incubation ([1]; 50% HFIP, without sonication, test tubes, pH 7.5, 100 mM NaCl, 37 °C): maintained a very low intensity
- effect of sonication on ThT fluorescence ([1]; greater than 40% TFE, with sonication, 10 μM, pH 7.5, 100 mM NaCl, 37 °C): did not affect the ThT fluorescence
- change in ThT-based kinetics and CD spectra ([1]; more than 25% TFE, quiescent, 10 μM, pH 7.5, 100 mM NaCl, 37 °C): no change
- change in ThT fluorescence intensity after incubation ([1]; without TFE, quiescent, incubation ~2 days, 10 μM, pH 7.5, 100 mM NaCl, 37 °C): no change
- elongation rate constant of amyloid fibrillation (ThT) [1, 5]: ~ 10 h^−1
- lag time of amyloid fibrillation (ThT) [1, 5]: ~ 1 h
- solubility state at high alcohol concentrations ([2]; >40% TFE and >30% HFIP, regardless of extensive sonication): remained soluble
- amyloid-forming region ([2]; water/TFE mixtures, with sonication, 100 mM NaCl, pH 7.5): 0–25 % TFE

Substance: Aβ1–40 oligomers: Aβ1–40 dissolved in 100% HFIP, diluted 10-fold with water; ThT-negative β-structured spherical oligomers
- time of saturation of ThT fluorescence increase ([1]; oligomers + 10 mM sodium phosphate buffer pH 7.5, 100 mM NaCl, quiescent, 37 °C): ~ 35 h
- increase in ThT intensity ([1]; oligomers + NaCl alone (50–2000 mM), no pH shift, continuous shaking): no increase
- change in ThT fluorescence intensity of oligomer solution ([1]; oligomers without buffer (pH ~4), ~2 days without agitation, 37 °C): no changes
- molecular weight of small oligomers ([3]; calculated from s-value ~5.2 S): ~ 70 kDa
- molecular weight of large oligomers ([3]; calculated from s-value ~24.7 S): ~ 740 kDa
- number of Aβ1–40 peptides forming small oligomers ([3]; from molecular weight ~70 kDa): ~ 17
- number of Aβ1–40 peptides forming large oligomers ([3]; from molecular weight ~740 kDa): ~ 170
- sedimentation coefficient (s-value), large oligomers [3, 6]: ~ 24.7 S
- sedimentation coefficient (s-value), small oligomers [3, 6]: ~ 5.2 S
